The target of assay [1] is adeno-associated virus type 2 (AAV2) particles (adeno-associated virus type 2) (UniProt P03135). Briefly: affinity column (beads), AAV2 crude liquid, retention time 5 sec, qPCR.
For assay [2] the target is unchanged. Briefly: affinity column (beads), AAV2 crude liquid, 0.2 mL/min, qPCR. (Real-time PCR tracks product formation cycle by cycle.)
The target is the same in assay [3]. The experiment in a line: affinity column (beads), AAV2 crude liquid, retention time 10 sec, qPCR.
Assay [4] shares this target. Briefly: affinity column (beads), AAV2 pre-treatment liquid, 0.2 mL/min, qPCR.
In assay [5] the target is adeno-associated virus type 1 (AAV1) particles (adeno-associated virus type 1). Briefly: batch adsorption of AAV1 pre-treatment liquid to discs (ligand on nonwoven fabric 1), acid elution, qPCR.

Regarding “POROS CaptureSelect AAVX (ligand of the commercial affinity resin, Thermo Scientific) (VHH)”, in assay [1], the leaked AAV to FT is 1.38e+11 vg, the ratio of leaked AAV to recovered AAV was 19%, the ratio of residual AAV to recovered AAV was determined as 22% and the recovered AAV in elution step was 7.42e+11 vg. The molecule further had a residual AAV in washing step in assay [1] of 1.67e+11 vg. Also, in assay [2], the leaked AAV to FT stood at 5.97e+09 vg, the ratio of leaked AAV to recovered AAV stood at 1%, the ratio of residual AAV to recovered AAV was found to be 17% and the recovered AAV in elution step came to 8.77e+11 vg. The residual AAV in washing step in assay [2] came out at 1.49e+11 vg. For the same molecule, in assay [3], the leaked AAV to FT was 4.19e+10 vg, the ratio of leaked AAV to recovered AAV was 5%, the ratio of residual AAV to recovered AAV was 17% and the recovered AAV in elution step amounted to 8.66e+11 vg. The molecule also gave a residual AAV in washing step in assay [3] of 1.47e+11 vg. In addition, in assay [4], the ratio of residual AAV to recovered AAV worked out at 48.8%, the recovered AAV in elution step stood at 5.75e+11 vg and the residual AAV in washing step was 2.8e+11 vg.

B1: anti-AAV-VHH antibody VHH1 (VHH)
VHH: QVQLVESGGGLVQAGGSLRLSCAASGRTFSSYAMGWFRQAPGKEREIVASISWNGGSTDYADSVKGRFTISRDNAKNTVYLQMNSLKPEDTAVYYCAADSTNWVFYDYWGQGTQVTVSS
In the case of B1, the amount of the AAV1 adsorbed in assay [5] came to 1.1e+13 vg/mL-column.

The values are drawn from patent US20240024851A1.
